Assay results published in patent US20160264666A1 (INSERM INSTITUT NATIONAL DE LA SANTE ET DE LA RECHERCHE …, published 2016).
Where a chain is given by its changes, count along the chain named.

B1: ICOS 88-2 (antibody, V domains shown)
VH: QVQLQQPGAELVRPGASVKLSCKASGYSFTSYWINWVKQRPGQGLEWIGNIYPSDSYTNYNQMFKDKATLTVDKSSNTAYMQLTSPTSEDSAVYYCTRWNLSYYFDNNYYLDYWGQGTTLTVSS
VL: DIVMTQAAPSVPVTPGESVSISCRSSKSLLHSNGNTYLYWFLQRPGQSPQLLIYRMSNLASGVPDRFSGSGSGTAFTLRISRVEAEDVGVYYCMQHLEYPWTFGGGTKLEIK
notes: Mouse hybridoma monoclonal antibody; isotype printed as IgG1-L; Agonist of ICOS; also called anti-ICOS mAb 88-2
B2: ICOS 314-8 (antibody, V domains shown)
VH: QVQLQQPGTELMKPGASVKLSCKASGYTFTTYWMHWVKQRPGQGLEWIGEIDPSDSYVNYNQNFKGKATLTVDKSSSTAYIQLSSLTSEDSAVYFCARSPDYYGTSLAWFDYWGQGTLVTVST
VL: B1 VL with L29P, T36I, A75T, R79K, W101Y
notes: Mouse hybridoma monoclonal antibody; isotype printed as IgG1-K; Antagonist of ICOS

How the values were obtained:
[1] = biological target: T1, ICOS (Inductible T cell costimulator) (UniProt Q9Y6W8 21-199, limits assumed); test: flow cytometry on JICOS.1 cells, inhibition of ICOS L-Fc binding to ICOS, revealed with GAH-PE; printed as [ID] 50
T1 construct: whole, on cells; also called ICOS on JICOS.1 cells
T1 sequence (looked up): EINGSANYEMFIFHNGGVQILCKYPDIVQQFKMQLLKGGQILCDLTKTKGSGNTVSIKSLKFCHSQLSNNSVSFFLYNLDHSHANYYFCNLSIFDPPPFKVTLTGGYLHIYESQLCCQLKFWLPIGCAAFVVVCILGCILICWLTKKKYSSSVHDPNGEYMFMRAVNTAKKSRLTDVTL
From the text: (§1) They used a gradient of concentration of anti-ICOS mAbs and theyr reveled the fixation to ICOS L Fc thanks to a probe coupled to a fluorochrom (GAH-PE: Goat anti-human-PE). The analysis was made by flow cytometry.

[2] = biological target: T1, ICOS (Inductible T cell costimulator); test: flow cytometry on JICOS.1 cells (ICOS transfectants), mAb titration revealed with GAM-PE; printed as [ED] 50
Method: (§2) The inventors developed 5 anti-ICOS Abs. Their isotype was assayed by ELISA. For obtaining an indirect analysis of their affinity for their receptor, mAbs were tested using stable transfectants expressing ICOS. JICOS.1 cells were in the presence of an increasing range of anti-ICOS mAbs labeled with a probe coupled to a fluorochrome (PE-GAM: Goat anti mouse-PE) and the analysis was made thanks to cytometry flow.

[3] = biological target: T1, ICOS (Inductible T cell costimulator); test: flow cytometry on JICOS.1 cells, inhibition of ICOS L-Fc binding to ICOS; printed as ID 50
From the text: as §1

[4] = biological target: T1, ICOS (Inductible T cell costimulator); test: flow cytometry on JICOS.1 cells, mAb titration revealed with GAM-PE; printed as ED 50
Method: as §2

Row | IC50 [1] | EC50 [2] | IC50 [3] | EC50 [4] | Binder
1 | 17 mg/L | 1.6 mg/L | – | – | B1
2 | 0.29 mg/L | 0.06 mg/L | < 1000 mg/L | < 0.5 mg/L | B2
